From the supplement of paper PMC9170038

tested on: K4 kissing-loop RNA reporter; experiment: apparent KD of K4 kissing-loop reporter; higher = weaker reporter binding; settings: Eterna round: R107; input ligand: none
Method: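 RNA-MaP round R107: designed RNA switches with theophylline, tryptophan, arginine or FMN aptamers are transcribed on-chip within common flanks. They are titrated with a labelled K4 kissing-loop RNA reporter in RNA-MaP buffer (100 mM Tris pH 7.5, 80 mM KCl, 4 mM MgCl2), without ligand or with the indicated ligand. Median apparent KD per design.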
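Note: bound reporter read as fluorescence of individual clusters on recovered sequencing chips by microscopy, with normalized cluster intensities fitted with a binding model.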

Point of comparison: “GCAUGAUAGUAAGGAUAUAGAUAAUCCUUAUAUAUAUCGAGUGAUGUUCGAUGUGCCAAGGUACAUCUAGAAGGUACUGUAAGGU [Same State FMN B GF 17]”, “apparent KD of K4 kissing-loop reporter” value 257 nM. Against it:
- UACAGGGAUAGUGAUGUUAUCCCAUGUGAUACCAGUGUCAUCCAACACCCUUGGCAGCAUACGGGCAGUGAUGUUGUUCUUGGUA [#17 K4 Theophylline A Exclusion] — 2.8-fold lower, 91.6 nM
- UGUACCGAGUCAGGAUAUCAUAAUAAUCGAGUGAUGUUCGAAUAACGACUGACAAAGUCGGUCGAUUGAGAAGGGACUUGGUACU [FmnBS 7 #SwitchBubble #StaticStem] — 1.7-fold higher, 444 nM
- UGUCGAGUGAUGUUCGAUGUGGUGCAUUCAGAGGAUAUAGGGUGGGCUAGAAGGCUGAAAAGUGCUUCGAGUGAUGUUCGAAGAU [Exclusion FMN A GF8] — 1.8-fold lower, 144 nM
- GCGCGGCUCAGUGAUGUUGAGCCUCGGAAACGAGGACCGGUACGGCCGCCACUCGUCCGCGCAGCUGAGGCAAAAGCCUCGGCUA [Omei KL Tryp A SS B v2] — 1.9-fold higher, 484 nM
- CAAAUAUGCGGUAGGUUCAAGCGCUGGGAAGGAGCGCAGAUGACUGCAGGUAGGUCGCCCAGUGAUGUUGGGCUUUCCACCUAUG [Esisusa] — 2.4-fold lower, 107 nM
- AAAUACAUUUUAUUAUAUAACUUUUCAGAAGGAGCGUGGAAGUUCACAGGUAGGUCGCUGAAUAUUGGACUAGUGAUGUUAGUUA [JR_Nu_SSArginiA_Sub021] — within 1.5-fold, 253 nM
- GGAUCCACCAGUGAUGUUGGAGAAAACUCCGAGGAUAUGACGAAAGUCAGAAGGUGGUAGACUGGACAAAGUCCGGUCGGAUCCA [FmnA 24 #SwitchBubble #K4Early] — within 1.5-fold, 288 nM
- GUACCAGUGAUGUUGGUAGGCGAGCGGGAUACCAGCCAAGACUCAGGCCCUUGGCAGCCCACAUAUCCCACGUAGGUAGUAGCUC [Same State - Theophylline A (Freestyle 17)] — 2.4-fold lower, 105 nM
- UGACUGGACUGAAGGAGCGCGAAAACUCCUAGUGAUGUUAGGAAAACGAGACAAAGUCUCGCGCAGGUAGGUCGCAGUCUAGUCU [ArgBS 20 #SwitchBubble #StaticStem] — 2.1-fold lower, 121 nM
- UAAGAAUAAGUAGCAGUGAUGUUGCUACUACGAGGACCGGUACGGCCGCCACUCGAAUACGAGUGGAAGUAGCAACUACCACUCA [(H1)-(H2)-(Trp1)-(Trp2)-(T)'-(H)'-(T)''_Design7] — 2.1-fold lower, 125 nM
- AUAUAAGUCGGAGGAUAUCCAGUGAUGUUAUGUUGUGAUGUUUAGUGAUGUUAGGCAUCAGUGAAGGGAGAAGGCCGUAAGUGAU [APPLE] — 2.8-fold lower, 91.1 nM
- AUGUCUAAUACGGCCGCCACUCGAGCAGUGAUGUUGCUCAGUAAUGGUCAUCGUCGUACAUGCCCGAGGACCGGGUAUUGAUUUG [Remain] — 1.8-fold lower, 140 nM
- UGGAUAUAGUGAUGUUAUAUAGAGAUGGAUACCAGCUGAGAGAAUAGCCCUUGGCAGCCGAAAGAAGUAUCAUUAGAGAAGAAUG [ExTheophyl.Aj] — within 1.5-fold, 231 nM
- AACCACUCGUUACAUCACUAUCGAGUGGAACGAGGACCGGUACGGCCGCCACUCGAAUAGAUGCAGUGAUGUUGCAUCUUGGAAU [KL-SSTryp-A (BrourdMod)4 #dotplot2 strengthened] — 1.6-fold lower, 163 nM
- AAAAGAAAGUCGGCCGCCACUCAACGCAGUGAUGUUGCAAGACAGAAGAGCAGUGAUGUUGCCCAGAGGACCGGGACACAAGGCC [Same State Typtophan B GF 3] — 1.7-fold higher, 444 nM
- UGCUGUCAAUAAGAUACCAGUUGGACUGAGUGAUGUUCAUCCAUUAUAUCUAUUCUGCUUAACCCUUGGCAGCUUGAUGACGUUU [theeternabot_exclusion_KL_Theo_B_6] — within 1.5-fold, 180 nM
- UAUACUAGACAAGAGAGAAUUCUCUCAAGAGAGGAUAUCCGAAUUCGGAGAAGGCUCUCUAAGUGAUGUUUGGAAUAGUCUAGAA [AK5 SS FMN A] — 2.9-fold higher, 737 nM
- ACGCUAGCUACCGAAAGGUAGCUAGCGAGUGAGGAUAUGUGGAAACACAGAAGGCACAGCACAGUGAUGUUGUGCGGCGAAAGCC — 3.6-fold higher, 932 nM
- GUAUCGCUAGGAGGAUAUUUCAAAUAACCAAUAAAUGGUUAUACGGAGUGAUGUUCCGAUUUACGGAAAGAAGGCCUAGUGAUAC [FMN B 5] — within 1.5-fold, 302 nM
- AAGUAGUCCCUUGUUGUCAUCGAAGAUGAACGAGGACCGGUACGGCCGCCACUCGGAGUGAUGUUCCGAUGGCUGCAAAAUAAAA [MatMod 22 - Jieux - Exclusion - Tryptophan A] — 2.8-fold lower, 92 nM
- GCCGUAGAUUGAAGGAGCGCUAGUAGUGAUGUUGCUUGCACUUCUUGUGUAAGAAGAACCUAGCAGGUAGGUCGCAAUCUACGGC — 2.8-fold higher, 728 nM

same assay, conditions: Eterna round: R107; input ligand: theophylline 20 uM

Point of comparison: “GGGUGGCAGGCGGCCGCCACUCUGAGCAGCCAGUGAGUGAUGUUCGUGGCGGAAGAAUGUUCGUAGAGGACCGGGUUUGUUGUUC [Same State Tryptophan B GF 22]”, “apparent KD of K4 kissing-loop reporter” value 432 nM. Against it:
- UGAUCACAGUGAUGUUGUGGCAAAAGUGAUACCAGCCGUGUACGAGGCCCUUGGCAGCACCAGGGCUGUACGUCGUUAGAUCCGG [theeternabot_exclusion_KL_Theo_A_33] — 2.4-fold lower, 177 nM
- AUAUCGGUUGAGAGUGAUGUUCCUUGUGUUCGAGGACCGGUACGGCCGCCACUCGGGUAGAAAAUAAAAGAUGUGUUUGAUUUUU [BDazzled - #14 SS Tryptophan A] — within 1.5-fold, 402 nM
- GUAUCGCUAGGAGGAUAUUCCAUUUUACAUAGAAAUGGCUAUGCGGAGUGAUGUUCCGAUUUACGGGAAGAAGGCCUAGUGAUAC [FMN B 21] — 3.8-fold lower, 115 nM
- UGCAGUGAUGUUGCUAUUUUUCUUGAUUAACGAGGACCGGUACGGCCGCCACUCGAUUUCUCUCUAGUCCAGUAUGUUGUUUGAU [whbob_EX_Tryp_A_t5] — 3.5-fold lower, 125 nM
- UAUGUCAUUCUCGACGGAGUGAUGUUCCGACGAGGACCGGUACGGCCGCCACUCGGCAGAAUUGAGUCUGUGAUCCUAGAUCAAU [theeternabot_exclusion_KL_Trp_A_44] — 4.2-fold lower, 103 nM
- CCGCUACCCUCAGGAUAUUAAGUAUUAGUGAUGUUAGUAAACCGAUGGCGAAAGCCAUCGGUAUGUUGAGAAGGGAGGGUAGCGG [whbob_SS_FMNB__2th198] — 2-fold higher, 847 nM
- UACCUGCUGUCAGGAUAUGAGUGCAGUGAUGUUGCACUCAACGUAACCAUCUUGAAAUGCAAACACUCAGAAGGGACGCGCGAAG [Onaninso] — 4.7-fold lower, 91.8 nM
- UUGUUUAACUGAAGGAGCGGCAAUUGAUACGUAGAUAUAGUGAUGUUAUAUAAGAUAGAGAGCCAGGUAGGUCGCAGAGGUGUUU [ExArgB.R] — 2-fold lower, 219 nM
- UUUGGAAGCGGUGUUGAUUAGGGAGCGGAAGGAGCGCCGAUUAUGGCAGGUAGGUCGCCGGAAUGUAGUGAUGUUGCAUAGAGGG [ExArgA.W] — 1.6-fold lower, 263 nM
- UCUGUUGUAUAUGAUACCAGCAGUGAGAGACAGGAAGUAUAGUGAUGUUAUAUGAGAGAAUGCCCUUGGCAGCGUGUGCGGGUGG [SSTheophylB.X] — 3.7-fold lower, 116 nM
- GUACGCUCUCGAGUGAUGUUCGGUAAUCGCUAGGAUAUCGCUUUUGCGAGAAGGAGCGGAAUGAGGAAACUCGUUCUGAGUGUAC [FMN A 22] — within 1.5-fold, 325 nM
- AAGAAGAAUGGAAGGAGCGAGCAGAUAUAACCAGUGAUGUUGGAAAGCCUUAUUGCUUAAGCUCAGGUAGGUCGCCAAGAAAAGA [whbob_Ex_Arginine_B_2t151] — 2.2-fold lower, 193 nM
- AGUCCACUCUAAAGAGUGGACCUAAGGGAUACCAGUGAUGUUGGUCACCCUUGGCAGCCCUCUGUCAUCGAUAAAGAUGGCAGAA — 3.9-fold lower, 112 nM
- UACUUUAAUUUAUAACUAUCUUUAUUUUGUCAGGAUAUCGUAUUGUCGAGAAGGGACUCUCUCAAGUGAUGUUUGAGAAAUCGUU [JR_SSFMNA_Sub024] — 3.2-fold lower, 133 nM
- AAGUGUUCUAGUGAUACCAGACAUUUCUAUUUUAUCUUUAUAGCUAAGUGAUGUUUAGCAGUCCCUUGGCAGCACUAUUUCACUA [JR_SSTheophyB_Sub017] — 2.7-fold lower, 160 nM
- AAGGUGAUCCUCGAUACCAGCUCAAAAUGAGUGAUGUUCAUGAAAGCCUGGAAACAGGCGAGCCCUUGGCAGCGAGUUACAUCAA [KL-SSTheoB8] — 3.2-fold lower, 134 nM
- AAGACUUGCAUCGAUACCAGCCCAGUGAUGUUGGGCUGCUCUCCAUGGGUGCCAGACACGGGCCCUUGGCAGCGAGGUAAGGCCC [Soveri] — 4-fold lower, 109 nM
- AGACUUCACCGAAGGAGCGACGUGGCCUAGUGAUGUUAGGUACGAGAGAAAUCUCGUAUACGUCAGGUAGGUCGCGGUGAAGUCA [Omei KL Arginine B SS C v8] — 1.7-fold higher, 721 nM
- AACUUAAUUUAUAAGCAGUGAUGUUGCUCACGAGGACCGGUACGGCCGCCACUCGAUCGGACUUAGGUCUUCAAUUAUUUCUUAA [JR_ExcTryptoA_Sub018] — 3.1-fold lower, 140 nM
- AGUGAUAUAUGAGGAUAUGGGUUUGUUAAUGAGUUUGUUUUAGUGUUGUUUGGUUAGUGAUGUUAUUUAGAAGGCGUGAGUGAUG [vxxexmullin] — 3.4-fold lower, 127 nM
- UACAGGGAUAGUGAUGUUAUCCCAUGUGAUACCAGUGUCAUCCAACACCCUUGGCAGCAUACGGGCAGUGAUGUUGUUCUUGGUA [#17 K4 Theophylline A Exclusion] — 5.6-fold lower, 77.5 nM
- UGUACCGAGUCAGGAUAUCAUAAUAAUCGAGUGAUGUUCGAAUAACGACUGACAAAGUCGGUCGAUUGAGAAGGGACUUGGUACU [FmnBS 7 #SwitchBubble #StaticStem] — within 1.5-fold, 362 nM
- UGUCGAGUGAUGUUCGAUGUGGUGCAUUCAGAGGAUAUAGGGUGGGCUAGAAGGCUGAAAAGUGCUUCGAGUGAUGUUCGAAGAU [Exclusion FMN A GF8] — 3.3-fold lower, 132 nM
- GCGCGGCUCAGUGAUGUUGAGCCUCGGAAACGAGGACCGGUACGGCCGCCACUCGUCCGCGCAGCUGAGGCAAAAGCCUCGGCUA [Omei KL Tryp A SS B v2] — within 1.5-fold, 480 nM
- CAAAUAUGCGGUAGGUUCAAGCGCUGGGAAGGAGCGCAGAUGACUGCAGGUAGGUCGCCCAGUGAUGUUGGGCUUUCCACCUAUG [Esisusa] — 3.2-fold lower, 136 nM
- AAAUACAUUUUAUUAUAUAACUUUUCAGAAGGAGCGUGGAAGUUCACAGGUAGGUCGCUGAAUAUUGGACUAGUGAUGUUAGUUA [JR_Nu_SSArginiA_Sub021] — 1.9-fold lower, 225 nM
- GGAUCCACCAGUGAUGUUGGAGAAAACUCCGAGGAUAUGACGAAAGUCAGAAGGUGGUAGACUGGACAAAGUCCGGUCGGAUCCA [FmnA 24 #SwitchBubble #K4Early] — 2.7-fold lower, 162 nM
- GUACCAGUGAUGUUGGUAGGCGAGCGGGAUACCAGCCAAGACUCAGGCCCUUGGCAGCCCACAUAUCCCACGUAGGUAGUAGCUC [Same State - Theophylline A (Freestyle 17)] — 3.9-fold lower, 110 nM
- UGACUGGACUGAAGGAGCGCGAAAACUCCUAGUGAUGUUAGGAAAACGAGACAAAGUCUCGCGCAGGUAGGUCGCAGUCUAGUCU [ArgBS 20 #SwitchBubble #StaticStem] — 3.3-fold lower, 129 nM
- UAAGAAUAAGUAGCAGUGAUGUUGCUACUACGAGGACCGGUACGGCCGCCACUCGAAUACGAGUGGAAGUAGCAACUACCACUCA [(H1)-(H2)-(Trp1)-(Trp2)-(T)'-(H)'-(T)''_Design7] — 4.9-fold lower, 88 nM
- GCAUGAUAGUAAGGAUAUAGAUAAUCCUUAUAUAUAUCGAGUGAUGUUCGAUGUGCCAAGGUACAUCUAGAAGGUACUGUAAGGU [Same State FMN B GF 17] — within 1.5-fold, 355 nM
